Biological target: GST-AP-2alpha (Homo sapiens, UniProt P05549 1-437)
Experiment: competition

Chain of GST-AP-2alpha (P05549 whole entry): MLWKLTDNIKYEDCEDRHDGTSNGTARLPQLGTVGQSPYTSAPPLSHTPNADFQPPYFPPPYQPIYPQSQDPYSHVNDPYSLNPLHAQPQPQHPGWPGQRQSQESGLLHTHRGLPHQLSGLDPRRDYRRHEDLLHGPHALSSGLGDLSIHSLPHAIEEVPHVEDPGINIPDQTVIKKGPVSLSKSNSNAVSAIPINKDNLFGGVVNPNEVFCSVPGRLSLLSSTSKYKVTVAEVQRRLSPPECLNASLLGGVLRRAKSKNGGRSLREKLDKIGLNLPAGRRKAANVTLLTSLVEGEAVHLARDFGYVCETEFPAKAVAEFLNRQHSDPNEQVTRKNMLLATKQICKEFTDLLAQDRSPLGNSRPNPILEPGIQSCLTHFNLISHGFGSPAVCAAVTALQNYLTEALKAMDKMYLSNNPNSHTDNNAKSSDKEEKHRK

B1: O58 (dsDNA)
DNA 1: GATTGTCCCTACACTCGCCTCAGGCGATCATCGGAATACACGATGCTTGG
DNA 2: CCAAGCATCGTGTATTCCGATGATCGCCTGAGGCGAGTGTAGGGACAATC
B1: binds.

Source: paper PMC1110745
